Reference: patent US20260151539A1 (University of Washington, published 2026)

Molecular target: the molecule itself
Experiment: cell-based or functional assay

B1: PXP (SEQ ID NO: 81) (designed binder)
chain: MRGSHHHHHHGSGRGDSVDGSGSGSGSGSGSGAPQMLRELQETNAALQDVRELLRQQVKEITFLKNTVMESDASGSGSGSGSGSGSLDGSPAGSPTSTEEGTSESATPESGPGTSTEPSEGSAPGSPAGSPTSTEEGTSTEPSEGSAPGTSTEPSEGSAPGTSESATPESGPGSEPATSGSETPGSEPATSGSETPGSPAGSPTSTEEGTSESATPESGPGTSTEPSEGSAPLDGSGSGSGSGSGSGAPQMLRELQETNAALQDVRELLRQQVKEITFLKNTVMESDASGSGSGSGSGSGSLEGRGDSHHHHHHKLN
Question: With B1 as the protein, how does the “Recovery Time Crossover [s], 25 C” value read?
Answer: 4.79 s

Question: What about the “Recovery Time Crossover [s], 37 C” value of the same protein?
Answer: 7.91 s

Question: What about the “Strain crossover (G'' > G'), 25 C” value of the same protein?
Answer: 161 % strain

Question: What about the “Strain crossover (G'' > G'), 37 C” value of the same protein?
Answer: 151 % strain

B2: T40A mutant (SEQ ID NO: 82) (designed binder)
chain: MRGSHHHHHHGSGRGDSGSGSGSGSGSGSGAPQMLRELQEANAALQDVRELLRQQVKEITFLKNTVMESDASGSGSGSGSGSVDGSPAGSPTSTEEGTSESATPESGPGTSTEPSEGSAPGSPAGSPTSTEEGTSTEPSEGSAPGTSTEPSEGSAPGTSESATPESGPGSEPATSGSETPGSEPATSGSETPGSPAGSPTSTEEGTSESATPESGPGTSTEPSEGSAPLESGSGSGSGSGSGAPQMLRELQEANAALQDVRELLRQQVKEITFLKNTVMESDASGSGSGSGSGSGSGRGDSHHHHHHKLN
Question: How did the “Recovery Time Crossover [s], 25 C” value turn out when B2 was run?
Answer: 4.51 s

Question: And the “Recovery Time Crossover [s], 37 C” value?
Answer: 4.58 s

Question: And the “Strain crossover (G'' > G'), 25 C” value?
Answer: 127 % strain

Question: And the “Strain crossover (G'' > G'), 37 C” value?
Answer: 143 % strain

B3: Q54A mutant (SEQ ID NO: 83) (designed binder)
chain: MRGSHHHHHHGSGRGDSGSGSGSGSGSGSGAPQMLRELQETNAALQDVRELLRQAVKEITFLKNTVMESDASGSGSGSGSGSVDGSPAGSPTSTEEGTSESATPESGPGTSTEPSEGSAPGSPAGSPTSTEEGTSTEPSEGSAPGTSTEPSEGSAPGTSESATPESGPGSEPATSGSETPGSEPATSGSETPGSPAGSPTSTEEGTSESATPESGPGTSTEPSEGSAPLESGSGSGSGSGSGAPQMLRELQETNAALQDVRELLRQAVKEITFLKNTVMESDASGSGSGSGSGSGSGRGDSHHHHHHKLN
Question: What does the source list for B3?
Answer: Recovery Time Crossover [s], 25 C: 4.45 s; Recovery Time Crossover [s], 37 C: 4.39 s; Strain crossover (G'' > G'), 25 C: 116 % strain; Strain crossover (G'' > G'), 37 C: 132 % strain

B4: T40A+Q54A mutant (SEQ ID NO: 84) (designed binder)
chain: MRGSHHHHHHGSGRGDSGSGSGSGSGSGSGAPQMLRELQEANAALQDVRELLRQAVKEITFLKNTVMESDASGSGSGSGSGSVDGSPAGSPTSTEEGTSESATPESGPGTSTEPSEGSAPGSPAGSPTSTEEGTSTEPSEGSAPGTSTEPSEGSAPGTSESATPESGPGSEPATSGSETPGSEPATSGSETPGSPAGSPTSTEEGTSESATPESGPGTSTEPSEGSAPLESGSGSGSGSGSGAPQMLRELQEANAALQDVRELLRQAVKEITFLKNTVMESDASGSGSGSGSGSGSGRGDSHHHHHHKLN
Question: With B4 as the protein, how does the “Recovery Time Crossover [s], 25 C” value read?
Answer: 4.39 s

Question: And the “Recovery Time Crossover [s], 37 C” value?
Answer: 4.38 s

Question: And the “Strain crossover (G'' > G'), 25 C” value?
Answer: 119 % strain

Question: And the “Strain crossover (G'' > G'), 37 C” value?
Answer: 95 % strain
